Assay results published in publication PMC7409537, “CYP20-3 deglutathionylates 2-CysPRX A and suppresses peroxide detoxification during heat stress” (Life Science Alliance, 2020).
Where “and” joins values, the source holds several entries; their conditions need not be identical. Equal values may be shown once.

Assays:
[1] = biological target: Cys to Ser mutant 2CPB C53S/C175S, tag-free (Arabidopsis thaliana); test: nonreducing SDS/PAGE (redox shift visualization); 1 μM (Fig 1) or 1.5 μM (Fig S2) recombinant 2CP incubated with/without 1 mM GSH (50 mM Tris-HCl pH 7.5, 25°C, 30 min), nonreducing SDS/PAGE, Coomassie stain (anti-GSH Western blot in Fig S2); oligomer size read from gel mobility; self-association
[2] = biological target: the molecule itself; test: nonreducing SDS/PAGE (redox shift visualization); 1 μM tag-free 2CP incubated with 1 mM GSH and 0.1% (vol/vol) Triton X-100 (partial denaturation), nonreducing SDS/PAGE, Coomassie stain; self-association
[3] = biological target: the molecule itself; test: nonreducing SDS/PAGE (redox shift visualization); 1 μM (Fig 1) or 1.5 μM (Fig S2) recombinant 2CP incubated with/without 1 mM GSH (50 mM Tris-HCl pH 7.5, 25°C, 30 min), nonreducing SDS/PAGE, Coomassie stain (anti-GSH Western blot in Fig S2); oligomer size read from gel mobility; self-association
[4] = biological target: the molecule itself; test: nonreducing SDS/PAGE (redox shift visualization); 1.5 μM 2CP^GS incubated with CYP20-3 (0-5 μM) at 42°C for 15 min, nonreducing SDS/PAGE, Coomassie stain and anti-GSH Western blot; self-association of the 2CP after the treatment
[5] = biological target: the molecule itself; test: nonreducing SDS/PAGE with Western blot of plant extracts; total leaf protein extracts of Arabidopsis (WT Col-0, 2cpa, 2cpb, cyp20-3; untreated or 0, 3, 6 h post wounding), nonreducing SDS/PAGE, Western blot with anti-2CPA or anti-GSH antibody; oligomer size read from gel mobility

## Cys to Ser mutant 2CPB C53S/C175S, tag-free (enzyme)
[1]
  stoichiometry N: 10

B1: GSH-glutathionylated 2-Cys peroxiredoxin A (2CPA^GS), tag-free recombinant (enzyme, Arabidopsis thaliana)
chain: GSHMKAQADDLPLVGNKAPDFEAEAVFDQEFIKVKLSDYIGKKYVILFFYPLDFTFVCPTEITAFSDRHSEFEKLNTEVLGVSVDSVFSHLAWVQTDRKSGGLGDLNYPLISDVTKSISKSFGVLIHDQGIALRGLFIIDKEGVIQHSTINNLGIGRSVDETMRTLQALQYIQENPDEVCPAGWKPGEKSMKPDPKLSKEYFSAI
modifications: S-glutathionylated by GSH (mixed disulfide GS-S on a Cys; the discussion names the resolving Cys, CR^53)
notes: four nonnative residues (Gly, Ser, His, Met) left at the N terminus after thrombin removal of the His-tag; C53 is C119 and C175 is C241 in Q96291; source: E. coli BL21 (DE3), purified (Ni-NTA), His-tag removed with thrombin, incubated with GSH; not shown: His-tag, N-terminal, cleaved
[2]
  stoichiometry N: 10
[3]
  stoichiometry N: 2

B2: 2-Cys peroxiredoxin A (2CPA), tag-free recombinant, not glutathionylated (enzyme, Arabidopsis thaliana)
chain: GSHMKAQADDLPLVGNKAPDFEAEAVFDQEFIKVKLSDYIGKKYVILFFYPLDFTFVCPTEITAFSDRHSEFEKLNTEVLGVSVDSVFSHLAWVQTDRKSGGLGDLNYPLISDVTKSISKSFGVLIHDQGIALRGLFIIDKEGVIQHSTINNLGIGRSVDETMRTLQALQYIQENPDEVCPAGWKPGEKSMKPDPKLSKEYFSAI
notes: four nonnative residues (Gly, Ser, His, Met) left at the N terminus after thrombin removal of the His-tag; C53 is C119 and C175 is C241 in Q96291; also called 2-CysPRX A; 2CP isoform A; source: E. coli BL21 (DE3), purified (Ni-NTA), His-tag removed with thrombin; not shown: His-tag, N-terminal, cleaved
[4]
  stoichiometry N: 2

B3: GSH-glutathionylated 2-Cys peroxiredoxin B (2CPB^GS), tag-free recombinant (enzyme, Arabidopsis thaliana)
chain: GSHMKAQADDLPLVGNKAPDFEAEAVFDQEFIKVKLSEYIGKKYVILFFYPLDFTFVCPTEITAFSDRYEEFEKLNTEVLGVSVDSVFSHLAWVQTDRKSGGLGDLNYPLVSDITKSISKSFGVLIPDQGIALRGLFIIDKEGVIQHSTINNLGIGRSVDETMRTLQALQYVQENPDEVCPAGWKPGEKSMKPDPKLSKEYFSAI
modifications: S-glutathionylated by GSH (mixed disulfide GS-S on a Cys)
notes: four nonnative residues (Gly, Ser, His, Met) left at the N terminus after thrombin removal of the His-tag; C53 is C126 and C175 is C248 in Q9C5R8; source: E. coli BL21 (DE3), purified (Ni-NTA), His-tag removed with thrombin, incubated with GSH; not shown: His-tag, N-terminal, cleaved
[3]
  stoichiometry N: 20
[4]
  stoichiometry N: 10

B4: 2-Cys peroxiredoxin B (2CPB), tag-free recombinant, not glutathionylated (enzyme, Arabidopsis thaliana)
chain: GSHMKAQADDLPLVGNKAPDFEAEAVFDQEFIKVKLSEYIGKKYVILFFYPLDFTFVCPTEITAFSDRYEEFEKLNTEVLGVSVDSVFSHLAWVQTDRKSGGLGDLNYPLVSDITKSISKSFGVLIPDQGIALRGLFIIDKEGVIQHSTINNLGIGRSVDETMRTLQALQYVQENPDEVCPAGWKPGEKSMKPDPKLSKEYFSAI
notes: four nonnative residues (Gly, Ser, His, Met) left at the N terminus after thrombin removal of the His-tag; C53 is C126 and C175 is C248 in Q9C5R8; also called 2-CysPRX B; 2CP isoform B; source: E. coli BL21 (DE3), purified (Ni-NTA), His-tag removed with thrombin; not shown: His-tag, N-terminal, cleaved
[3]
  stoichiometry N: 10 and 20

B5: endogenous GSH-glutathionylated 2CPA (2CPA^GS) in Arabidopsis leaf extracts (enzyme, UniProt Q96291 66-266, looked up)
chain: KAQADDLPLVGNKAPDFEAEAVFDQEFIKVKLSDYIGKKYVILFFYPLDFTFVCPTEITAFSDRHSEFEKLNTEVLGVSVDSVFSHLAWVQTDRKSGGLGDLNYPLISDVTKSISKSFGVLIHDQGIALRGLFIIDKEGVIQHSTINNLGIGRSVDETMRTLQALQYIQENPDEVCPAGWKPGEKSMKPDPKLSKEYFSAI
modifications: S-glutathionylated (as the paper names it: 2CPA^GS)
notes: 2-Cys peroxiredoxin A (2CPA), Arabidopsis thaliana, At3g11630, endogenous plastid protein; Bands in WT extracts detected with 2CP antibody and put down to 2CPA^GS by the authors; source: endogenous, Arabidopsis (Col-0) leaf total protein extract
[5]
  stoichiometry N: 2

B6: His-tagged GSH-glutathionylated 2-Cys peroxiredoxin B (His-tagged 2CPB^GS) (enzyme, Arabidopsis thaliana, UniProt Q9C5R8 73-273, looked up)
chain: KAQADDLPLVGNKAPDFEAEAVFDQEFIKVKLSEYIGKKYVILFFYPLDFTFVCPTEITAFSDRYEEFEKLNTEVLGVSVDSVFSHLAWVQTDRKSGGLGDLNYPLVSDITKSISKSFGVLIPDQGIALRGLFIIDKEGVIQHSTINNLGIGRSVDETMRTLQALQYVQENPDEVCPAGWKPGEKSMKPDPKLSKEYFSAI
modifications: S-glutathionylated by GSH (mixed disulfide GS-S on a Cys)
notes: C53 is C126 and C175 is C248 in Q9C5R8; Tagged version cloned BamHI/HindIII into pET28a; source: E. coli BL21 (DE3), purified (Ni-NTA), incubated with GSH
[3]
  stoichiometry N: 20 and 10
